According to patent publication US20110077196A1:

Target: human insulin receptor isoform B (human) (UniProt P06213)
Test: competitive displacement of 125I-Tyr^A14-insulin, plate antibody capture of receptor

Sequence of UniProt P06213 (P06213 other isoform, or with tags, fused parts or gaps): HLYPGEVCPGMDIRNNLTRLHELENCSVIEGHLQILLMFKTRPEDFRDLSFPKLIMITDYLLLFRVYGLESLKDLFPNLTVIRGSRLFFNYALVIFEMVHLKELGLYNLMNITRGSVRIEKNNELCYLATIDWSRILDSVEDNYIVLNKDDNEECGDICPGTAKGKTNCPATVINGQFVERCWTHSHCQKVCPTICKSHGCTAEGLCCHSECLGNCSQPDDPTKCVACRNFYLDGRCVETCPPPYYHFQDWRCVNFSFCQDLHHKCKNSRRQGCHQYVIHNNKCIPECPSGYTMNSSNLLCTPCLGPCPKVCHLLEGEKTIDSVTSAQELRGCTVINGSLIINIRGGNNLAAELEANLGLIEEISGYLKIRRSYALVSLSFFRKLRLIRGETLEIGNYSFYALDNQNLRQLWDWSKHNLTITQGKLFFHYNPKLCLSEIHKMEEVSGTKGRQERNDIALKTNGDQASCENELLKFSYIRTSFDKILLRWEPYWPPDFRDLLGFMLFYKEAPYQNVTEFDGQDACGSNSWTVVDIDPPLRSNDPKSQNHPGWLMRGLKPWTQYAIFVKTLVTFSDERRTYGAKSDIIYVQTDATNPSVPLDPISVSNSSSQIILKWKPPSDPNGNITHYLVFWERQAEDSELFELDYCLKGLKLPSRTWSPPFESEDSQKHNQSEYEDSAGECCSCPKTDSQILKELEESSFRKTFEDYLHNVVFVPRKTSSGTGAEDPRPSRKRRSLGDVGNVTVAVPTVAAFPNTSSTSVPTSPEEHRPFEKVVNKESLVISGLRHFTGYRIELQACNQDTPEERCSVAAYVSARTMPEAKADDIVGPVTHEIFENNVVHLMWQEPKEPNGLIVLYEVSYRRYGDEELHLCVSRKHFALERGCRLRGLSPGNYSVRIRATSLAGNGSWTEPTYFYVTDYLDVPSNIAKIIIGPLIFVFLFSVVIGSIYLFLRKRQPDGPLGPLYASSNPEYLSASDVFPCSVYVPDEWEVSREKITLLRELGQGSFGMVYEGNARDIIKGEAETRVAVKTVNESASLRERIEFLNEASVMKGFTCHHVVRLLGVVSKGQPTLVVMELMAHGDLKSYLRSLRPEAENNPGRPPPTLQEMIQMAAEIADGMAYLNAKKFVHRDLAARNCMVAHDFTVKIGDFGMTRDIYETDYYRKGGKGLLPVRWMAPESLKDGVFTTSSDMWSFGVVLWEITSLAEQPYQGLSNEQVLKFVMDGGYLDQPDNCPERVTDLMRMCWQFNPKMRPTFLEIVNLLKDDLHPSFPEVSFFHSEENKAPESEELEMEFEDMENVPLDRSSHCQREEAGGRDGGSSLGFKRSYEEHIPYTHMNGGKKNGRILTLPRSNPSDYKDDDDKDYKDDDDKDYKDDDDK

- Kd: 0.04 nM
Substance: XKPEE: analogue with 2-methyl-Phe^B24 (called X), Lys^B28, Pro^B29, and EE-extension (Glu^B31, Glu^B32) (ligand)
